Source: US20200255533A1 (NUMAB THERAPEUTICS, published 2020)
Changes are numbered by the printed parent chain. Names and notes keep the numbering of the source.

B1: Vκ1/VH4 consensus λ-capped (TNF-specific scFv) (scFv)
scFv: DIQMTQSPSSLSASVGDRVTITCQASQSISDWLAWYQQKPGKAPKLLIYGASRLASGVPSRFSGSGSGTDFTLTISSLQPEDFATYYCQQGWSDSYVDNLFGGGTKLTVLGGGGGSGGGGSGGGGSGGGGSQVQLQESGPGLVKPSETLSLTCTVSGFSLSSGAMSWIRQPPGKGLEWIGVIISSGATYYASWAKGRVTISVDTSKNQFSLKLSSVTAADTAVYYCARGGPDDSNSMGTFDPWGQGTLVTVSS
notes: scFv; also called capped Vκ1/VH4 consensus molecule
B2: Vκ1/VH4 consensus (T24K, T84S) λ-capped (TNF-specific scFv) (scFv)
scFv: B1 scFv with T154K, T204S
notes: scFv; also called Vκ1/VH4mut; mutant variant of Vκ1/VH4
B3: Vκ3/VH4 consensus λ-capped (TNF-specific scFv) (scFv)
scFv: DIVLTQSPATLSLSPGERATLSCQASQSISDWLAWYQQKPGQAPRLLIYGASRLASGVPARFSGSGSGTDFTLTISSLEPEDFAVYYCQQGWSDSYVDNLFGGGTKLTVLGGGGGSGGGGSGGGGSGGGGSQVQLQESGPGLVKPSETLSLTCTVSGFSLSSGAMSWIRQPPGKGLEWIGVIISSGATYYASWAKGRVTISVDTSKNQFSLKLSSVTAADTAVYYCARGGPDDSNSMGTFDPWGQGTLVTVSS
notes: scFv
B4: Vκ3/VH4 consensus (T24K, T84S) λ-capped (TNF-specific scFv) (scFv)
scFv: B3 scFv with T154K, T204S
notes: scFv; also called Vκ3/VH4mut

Biological target: human TNF (human, UniProt P01375 77-233)
Sequence (P01375 77-233 limits assumed): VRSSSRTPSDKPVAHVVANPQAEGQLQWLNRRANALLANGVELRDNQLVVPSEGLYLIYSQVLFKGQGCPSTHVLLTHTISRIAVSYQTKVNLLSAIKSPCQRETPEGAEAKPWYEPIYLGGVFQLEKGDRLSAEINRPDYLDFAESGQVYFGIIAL
Test: SPR, scFv

Binder	Kd	koff	kon
B1	0.0533 nM	3.36e-05 s⁻¹	631000 M⁻¹ s⁻¹
B2	0.043 nM	3.28e-05 s⁻¹	764000 M⁻¹ s⁻¹
B3	0.119 nM	5.25e-05 s⁻¹	440000 M⁻¹ s⁻¹
B4	0.0793 nM	3.09e-05 s⁻¹	390000 M⁻¹ s⁻¹
